We go through one substance from article PMC4162156.

This experiment addresses β-PrP^23–231 (full-length recombinant mouse PrP residues 23–231 refolded to the β-sheet conformation) (mouse) (UniProt P04925). The experiment is described as follows: AUC.

For “β-PrP^23–231 (full-length recombinant mouse PrP residues 23–231 refolded to the β-sheet conformation) (from UniProt P04925 23-231) (natural protein)”, the percentage occupancy of sample (oligomer) was determined as 61% and the stoichiometry N (monomer subunits) stood at 12.
